Reference: publication PMC6791372 (ACS chemical biology, 2019)

Target: the molecule itself
Experiment: crystal structure

B1: MetA crystallisation construct (C-terminal residues 297-309 truncated, P257I) (enzyme, E. coli, UniProt P07623 2-296, looked up)
chain: PIRVPDELPAVNFLREENVFVMTTSRASGQEIRPLKVLILNLMPKKIETENQFLRLLSNSPLQVDIQLLRIDSRESRNTPAEHLNNFYCNFEDIQDQNFDGLIVTGAPLGLVEFNDVAYWPQIKQVLEWSKDHVTSTLFVCWAVQAALNILYGIPKQTRTEKLSGVYEHHILHPHALLTRGFDDSFLAPHSRYADFPAALIRDYTDLEILAETEEGDAYLFASKDKRIAFVTGHPEYDAQTLAQEFFRDVEAGLDIDVPYNYFPHNDPQNTPRASWRSHGNLLFTNWLNYYVYQI
binding result: binds
